K0.5 data for two proteins are collected here from article PMC2807175.

Substrate in the data set: OC[C@H]1O[C@@](CO)(O[C@H]2O[C@H](CO)[C@@H](O)[C@H](O)[C@H]2O)[C@@H](O)[C@@H]1O
Put plainly: cells, lysate or membranes. The conditions noted are these: pH 5.6, Na Ringer, membrane potential -117 mV, H+ symport.

B1: OsSUT5 (Oryza sativa Japonica Group) (protein)
chain: MEEGRRGDREGKSAAGWTALSTTKTTLEEKRRLQANGSVGGDAGTSGFRRIVRLFFACMVAGGIQYGWALQLSLLSPYSQTLGISHSYVSLTWICGPIAGFVVQPIVGYYSDRCTMKMGRRRPFILVGCLIICISVMIIGFSADIGRHLGDTKEHCSTYTGPRWSAAMVYIVGFWFLDFANNTVQGPARAMMADLSAGHHGPNVGQSIFSLWMAIGSVLGYLSGANGKWHEWFPWLKTAACCDACANLKGAFFTAVLLIVVSMTVTMYLADEMPLDKQDVDTSGGGGCAVFVDLFKSLRNLPPAMFKVLAVTAVTWLSWFPFIQYNTDWMGREIYHGEPQGTAAKADVYDAGVREGAMGLLFCSVALGVTSFVIPKLCRRLTSKVVWSISNFLVFALMAVMVAVGMVSMRGYRPSLAAGLTGPDPTLKAVALVVFALIGIPQAVLFSVPWAVASEVTAEEGGGQGLAIGVLNIAIVVPQLVIALTAGPIDGAFNKGNTPAFGIGGAFAFICGVLALIWLPKTRGVSNAAVVAGGH
On to B1, for which the K0.5 was 2.32 mM.

B2: OsSUT1 (Oryza sativa Japonica Group) (protein)
chain: MARGSGAGGGGGGGGGGLELSVGVGGGGGARGGGGGEAAAAVETAAPISLGRLILSGMVAGGVQYGWALQLSLLTPYVQTLGLSHALTSFMWLCGPIAGMVVQPCVGLYSDRCTSKWGRRRPYILTGCVLICLAVVVIGFSADIGYAMGDTKEDCSVYHGSRWHAAIVYVLGFWLLDFSNNTVQGPARALMADLSGRHGPGTANSIFCSWMAMGNILGYSSGSTNNWHKWFPFLKTRACCEACANLKGAFLVAVIFLSLCLVITLIFAKEVPFKGNAALPTKSNEPAEPEGTGPLAVLKGFRNLPTGMPSVLIVTGLTWLSWFPFILYDTDWMGREIYHGDPKGTDPQIEAFNQGVRAGAFGLLLNSIVLGFSSFLIEPMCRKVGPRVVWVTSNFLVCIAMAATALISFWSLKDFHGTVQKAITADKSIKAVCLVLFAFLGVPLAVLYSVPFAVTAQLAATRGGGQGLCTGVLNISIVIPQVVIALGAGPWDELFGKGNIPAFGLASGFALIGGVAGIFLLPKISKRQFRSVSMGGGH
For the protein B2, the K0.5 is 7.50 mM.
